Reference: article PMC5578693, “The role of the C-terminal D0 domain of flagellin in activation of Toll like receptor 5” (PLoS Pathogens, 2017)

B1: S. typhimurium flagellin FliC, wild type (natural protein, UniProt P06179 1-495, looked up)
chain: MAQVINTNSLSLLTQNNLNKSQSALGTAIERLSSGLRINSAKDDAAGQAIANRFTANIKGLTQASRNANDGISIAQTTEGALNEINNNLQRVRELAVQSANSTNSQSDLDSIQAEITQRLNEIDRVSGQTQFNGVKVLAQDNTLTIQVGANDGETIDIDLKQINSQTLGLDTLNVQQKYKVSDTAATVTGYADTTIALDNSTFKASATGLGGTDQKIDGDLKFDDTTGKYYAKVTVTGGTGKDGYYEVSVDKTNGEVTLAGGATSPLTGGLPATATEDVKNVQVANADLTEAKAALTAAGVTGTASVVKMSYTDNNGKTIDGGLAVKVGDDYYSATQNKDGSISINTTKYTADDGTSKTALNKLGGADGKTEVVSIGGKTYAASKAEGHNFKAQPDLAEAAATTTENPLQKIDAALAQVDTLRSDLGAVQNRFNSAITNLGNTVNNLTSARSRIEDSDYATEVSNMSRAQILQQAGTSVLAQANQVPQNVLSLLR
notes: flagellin FliC of S. typhimurium (SaTy), UniProt P06179; cloned into pET19b; also called SaTy; wild-type flagellin; source: E. coli BL21 (DE3) pLysS, purified (Ni-NTA); not shown: His10, N-terminal, kept

What was measured:
[1] = target: soluble hTLR5 ectodomain fused to the Fc region of human IgG1 (human) (UniProt O60602)
[2] = target: T1, soluble hTLR5 ectodomain fused to the Fc region of human IgG1 (human, UniProt O60602 21-639); test: co-IP; 10 ug hTLR5-Fc bound to protein A-coupled Dynabeads (control: beads with water only); 20 ug wt or mutant flagellin added, 1 h at room temperature; washed 3 times with 1 x PBS, 0.02% Tween 20, pH 7.5; eluted in 0.1% SDS at 95 C; flagellin detected by Western blot with anti-His antibodies; settings: both partners purified
T1 construct: human Toll-like receptor 5, ectodomain; UniProtKB O60602; In the functional rows this molecule stands for human TLR5, which was there full length on HEK293 cells (pUNO-hTLR5) or endogenous in A549 cells; also called hTLR5-Fc; source: bought: Invivogen
T1 sequence (O60602 21-639): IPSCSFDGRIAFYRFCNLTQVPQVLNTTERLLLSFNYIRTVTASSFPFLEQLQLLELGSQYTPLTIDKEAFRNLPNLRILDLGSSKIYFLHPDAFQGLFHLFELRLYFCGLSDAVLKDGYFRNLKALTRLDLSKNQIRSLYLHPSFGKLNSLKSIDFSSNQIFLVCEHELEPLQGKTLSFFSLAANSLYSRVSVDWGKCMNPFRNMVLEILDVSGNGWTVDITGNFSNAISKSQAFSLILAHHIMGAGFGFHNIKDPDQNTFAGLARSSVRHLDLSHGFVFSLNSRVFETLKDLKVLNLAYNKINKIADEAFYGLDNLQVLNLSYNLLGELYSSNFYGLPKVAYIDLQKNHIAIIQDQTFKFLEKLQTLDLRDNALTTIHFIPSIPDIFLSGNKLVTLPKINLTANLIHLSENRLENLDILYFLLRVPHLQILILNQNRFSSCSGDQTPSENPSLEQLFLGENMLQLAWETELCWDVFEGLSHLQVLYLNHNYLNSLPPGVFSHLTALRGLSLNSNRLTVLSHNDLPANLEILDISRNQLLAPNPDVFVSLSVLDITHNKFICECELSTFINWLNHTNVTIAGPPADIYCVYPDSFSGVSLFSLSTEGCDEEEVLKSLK

Chain of soluble hTLR5 ectodomain fused to the Fc region of human IgG1 (human) (O60602 21-639): as above

Molecule | TLR5 activation: NF-kB reporter in A549 cells (SEAP) and in hTLR5-transfected HEK293 cells (luciferase, 0-1000 ng/ml); lowest active concentration [1] | binding result [2]
dimSFΔD0, two SFΔD0 domains tethered into a single polypeptide chain by a 27 amino acid peptide linker | 50 ng/mL | –
B1 | – | binds
